Four molecules from paper PMC3789972, “Human Mitochondrial Chaperone (mtHSP70) and Cysteine Desulfurase (NFS1) Bind Preferentially to the Disordered Conformation, Whereas Co-chaperone (HSC20) Binds to the Structured Conformation of the Iron-Sulfur Cluster Scaffold Protein (ISCU)*” (The Journal of Biological Chemistry, 2013) can be followed below.

The target of assay [1] is human mitochondrial DnaK-type chaperone mtHSP70, mature form (human) (UniProt P38646).
The target in assay [2] is human ISCU(N90A), mature form (human). The assay can be described thus: NMR titration; 1H,15N TROSY-HSQC of 0.5 mM U-15N-ISCU or U-15N-ISCU(N90A), aliquots of 0.4 mM unlabeled HSC20 added up to equimolar; TKDM buffer, 25 °C; %S from the Trp-76 cross-peaks and chemical shift perturbations.
In assay [3] the target is human iron-sulfur cluster scaffold protein ISCU, wild type, mature form (human) (UniProt Q9H1K1). The description is as above.
The target in assay [4] is human ISCU(N90A), mature form (human). The assay can be described thus: NMR titration; 1H,15N HSQC / TROSY-HSQC of 0.5 mM U-15N-ISCU or variant, aliquots of 0.5 mM unlabeled mtHSP70 added up to equimolar; TKDM buffer (50 mM Tris-HCl pH 7.5, 150 mM KCl, 5 mM DTT, 10 mM MgCl2), 25 °C; %S from the Trp-76 cross-peaks.
Assay [5] concerns the target human ISCU(H105A), mature form (human). The assay is described as above.
Assay [6] concerns the target human mitochondrial DnaK-type chaperone mtHSP70, mature form (human, UniProt P38646 47-679). The assay can be described thus: cell-based or functional assay.

human mitochondrial DnaK-type chaperone mtHSP70, mature form (human), sequence (P38646 47-679): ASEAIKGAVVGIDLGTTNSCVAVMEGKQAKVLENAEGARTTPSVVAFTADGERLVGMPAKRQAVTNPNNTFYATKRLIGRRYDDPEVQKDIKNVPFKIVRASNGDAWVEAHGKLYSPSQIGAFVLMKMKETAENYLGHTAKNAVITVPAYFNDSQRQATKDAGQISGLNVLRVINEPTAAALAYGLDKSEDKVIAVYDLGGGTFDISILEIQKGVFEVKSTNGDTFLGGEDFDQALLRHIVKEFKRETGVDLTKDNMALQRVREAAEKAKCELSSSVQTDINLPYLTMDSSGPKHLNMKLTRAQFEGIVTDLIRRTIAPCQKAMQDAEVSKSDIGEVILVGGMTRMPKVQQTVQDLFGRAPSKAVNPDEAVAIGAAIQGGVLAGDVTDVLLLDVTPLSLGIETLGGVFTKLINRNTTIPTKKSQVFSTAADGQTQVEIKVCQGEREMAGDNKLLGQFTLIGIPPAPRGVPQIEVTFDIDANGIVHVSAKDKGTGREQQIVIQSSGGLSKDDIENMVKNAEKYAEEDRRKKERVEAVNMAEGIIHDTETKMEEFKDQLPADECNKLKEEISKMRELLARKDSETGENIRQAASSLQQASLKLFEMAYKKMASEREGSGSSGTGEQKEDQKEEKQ
human mitochondrial DnaK-type chaperone mtHSP70, mature form (human, UniProt P38646 47-679), sequence (P38646 47-679): as above

Turning to “human ISCU(N90A), mature form (natural protein)”, in assay [1], the ATPase activity of 1 μM mtHSP70: concentration of ISCU(N90A) required for half-maximal stimulation in the presence of 5 μM HSC20, double-reciprocal plot was determined as 3.5 µM; the ATPase activity of 1 μM mtHSP70: maximal stimulation by ISCU(N90A) in the presence of 5 μM HSC20, double-reciprocal plot was found to be 8 fold; the ATPase activity of 1 μM mtHSP70 as a function of added ISCU(N90A) up to 24 μM in the presence of 5 μM HSC20: increase over basal activity was determined as 7 fold.
Consider “human mitochondrial DnaJ-type co-chaperone HSC20, mature form (natural protein)”, for which the %S of ISCU(N90A) after adding 1 eq of HSC20 in assay [2] turned out to be 99%. The %S of ISCU after adding equimolar HSC20 in assay [3] came out at 31%.
In the case of “human mitochondrial DnaK-type chaperone mtHSP70, mature form (from UniProt P38646 47-679) (natural protein)”, in assay [4], the %S of ISCU(N90A) at mole fraction 1.0 of added mtHSP70 was 83%. Moreover, in assay [5], the %S of ISCU(H105A) at mole fraction 1.0 of added mtHSP70 amounted to 0.54%.

B1: human iron-sulfur cluster scaffold protein ISCU, wild type, mature form (natural protein, UniProt Q9H1K1 35-167, looked up)
chain: YHKKVVDHYENPRNVGSLDKTSKNVGTGLVGAPACGDVMKLQIQVDEKGKIVDARFKTFGCGSAIASSSLATEWVKGKTVEEALTIKNTDIAKELCLPPVKLHCSMLAEDAIKAALADYKLKQEPKKGEAEKK
As for B1, in assay [6], the “ATPase activity of 1 μM mtHSP70: increase over basal activity with 15 μM ISCU and 4 μM HSC20” value is around 15 fold; the “ATPase activity of 1 μM mtHSP70: maximal stimulation upon adding ISCU in the presence of 5 μM HSC20, double-reciprocal plot” value was around 17 fold.
